Laboratory results reported in the Human Domainome abundance scans (Beltran et al. 2025).
± gives the uncertainty stated by the source.

B1: Friend leukemia integration 1 transcription factor, residues 116 to 197; numbered along this chain, Q01543 (parent)
chain: NMTTNERRVIVPADPTLWTQEHVRQWLEWAIKEYSLMEIDTSFFQNMDGKELCKMNKEDFLRATTLYNTEVLLSHLSYLRES

Variants of: B1
Test: abundance fitness (aPCA) (normalised: wild type 0, dead -1); higher = more abundant; growth selection in yeast, the domain comes from the species named
Conditions: Homo sapiens

Variant | abundance fitness
NMTTNERRVIVPADPTLWTQEHVRQWLEWAIKEYSLMEIDTSFFQNMDGKELCKMNKEDFERATTLYNTEVLLSHLSYLRES [L61E] | -0.16 ± 0.093
NMTTNERRVIVPADPTLWTQEHVRQWLEWAIKEYSLMEIDTSFFQNMDGKELCKMNKEDFFRATTLYNTEVLLSHLSYLRES [L61F] | -0.307 ± 0.13
NMTTNERRVIVPADPTLWTQEHVRQWLEWAIKEYSLMEIDTSFFQNMDGKELCKMNKEDFWRATTLYNTEVLLSHLSYLRES [L61W] | -0.04 ± 0.081
NMTTNERRVIVPADPTLWTQEHVRQWLEWAIKEYSLMEIDTSFFQNMDGKELCKMNKEDFARATTLYNTEVLLSHLSYLRES [L61A] | -0.13 ± 0.071
NMTTNERRVIVPADPTLWTQEHVRQWLEWAIKEYSLMEIDTSFFQNMDGKELCKMNKEDFDRATTLYNTEVLLSHLSYLRES [L61D] | -0.449 ± 0.22
NMTTNERRVIVPADPTLWTQEHVRQWLEWAIKEYSLMEIDTSFFQNMDGKELCKMNKEDFVRATTLYNTEVLLSHLSYLRES [L61V] | -0.13 ± 0.05
NMTTNERRVIVPADPTLWTQEHVRQWLEWAIKEYSLMEIDTSFFQNMDGKELCKMNKEDFTRATTLYNTEVLLSHLSYLRES [L61T] | -0.025 ± 0.13
NMTTNERRVIVPADPTLWTQEHVRQWLEWAIKEYSLMEIDTSFFQNMDGKELCKMNKEDFIRATTLYNTEVLLSHLSYLRES [L61I] | -0.268 ± 0.12
NMTTNERRVIVPADPTLWTQEHVRQWLEWAIKEYSLMEIDTSFFQNMDGKELCKMNKEDFGRATTLYNTEVLLSHLSYLRES [L61G] | -0.236 ± 0.069
NMTTNERRVIVPADPTLWTQEHVRQWLEWAIKEYSLMEIDTSFFQNMDGKELCKMNKEDFPRATTLYNTEVLLSHLSYLRES [L61P] | -1.07 ± 0.34
NMTTNERRVIVPADPTLWTQEHVRQWLEWAIKEYSLMEIDTSFFQNMDGKELCKMNKEDFQRATTLYNTEVLLSHLSYLRES [L61Q] | 0.009 ± 0.1
NMTTNERRVIVPADPTLWTQEHVRQWLEWAIKEYSLMEIDTSFFQNMDGKELCKMNKEDFSRATTLYNTEVLLSHLSYLRES [L61S] | -0.105 ± 0.07
NMTTNERRVIVPADPTLWTQEHVRQWLEWAIKEYSLMEIDTSFFQNMDGKELCKMNKEDFHRATTLYNTEVLLSHLSYLRES [L61H] | -0.36 ± 0.38
NMTTNERRVIVPADPTLWTQEHVRQWLEWAIKEYSLMEIDTSFFQNMDGKELCKMNKEDFMRATTLYNTEVLLSHLSYLRES [L61M] | -0.123 ± 0.15
NMTTNERRVIVPADPTLWTQEHVRQWLEWAIKEYSLMEIDTSFFQNMDGKELCKMNKEDFNRATTLYNTEVLLSHLSYLRES [L61N] | -0.371 ± 0.12
NMTTNERRVIVPADPTLWTQEHVRQWLEWAIKEYSLMEIDTSFFQNMDGKELCKMNKEDFCRATTLYNTEVLLSHLSYLRES [L61C] | -0.396 ± 0.15
NMTTNERRVIVPADPTLWTQEHVRQWLEWAIKEYSLMEIDTSFFQNMDGKELCKMNKEDFKRATTLYNTEVLLSHLSYLRES [L61K] | -0.335 ± 0.17

Variant | abundance fitness
NMTTNERRVIVPADPTLWTQEHVRQWLEWAIKEYSLMEIDTSFFQNMDGKELCKMNKEDFLLATTLYNTEVLLSHLSYLRES [R62L] | 0.007 ± 0.055
NMTTNERRVIVPADPTLWTQEHVRQWLEWAIKEYSLMEIDTSFFQNMDGKELCKMNKEDFLGATTLYNTEVLLSHLSYLRES [R62G] | -0.016 ± 0.079
NMTTNERRVIVPADPTLWTQEHVRQWLEWAIKEYSLMEIDTSFFQNMDGKELCKMNKEDFLCATTLYNTEVLLSHLSYLRES [R62C] | -0.23 ± 0.26
NMTTNERRVIVPADPTLWTQEHVRQWLEWAIKEYSLMEIDTSFFQNMDGKELCKMNKEDFLDATTLYNTEVLLSHLSYLRES [R62D] | -0.4 ± 0.21
NMTTNERRVIVPADPTLWTQEHVRQWLEWAIKEYSLMEIDTSFFQNMDGKELCKMNKEDFLNATTLYNTEVLLSHLSYLRES [R62N] | -0.021 ± 0.16
NMTTNERRVIVPADPTLWTQEHVRQWLEWAIKEYSLMEIDTSFFQNMDGKELCKMNKEDFLEATTLYNTEVLLSHLSYLRES [R62E] | -0.01 ± 0.082
NMTTNERRVIVPADPTLWTQEHVRQWLEWAIKEYSLMEIDTSFFQNMDGKELCKMNKEDFLIATTLYNTEVLLSHLSYLRES [R62I] | -0.728 ± 0.43
NMTTNERRVIVPADPTLWTQEHVRQWLEWAIKEYSLMEIDTSFFQNMDGKELCKMNKEDFLFATTLYNTEVLLSHLSYLRES [R62F] | -0.327 ± 0.2
NMTTNERRVIVPADPTLWTQEHVRQWLEWAIKEYSLMEIDTSFFQNMDGKELCKMNKEDFLKATTLYNTEVLLSHLSYLRES [R62K] | 0.087 ± 0.15
NMTTNERRVIVPADPTLWTQEHVRQWLEWAIKEYSLMEIDTSFFQNMDGKELCKMNKEDFLHATTLYNTEVLLSHLSYLRES [R62H] | -0.073 ± 0.18
NMTTNERRVIVPADPTLWTQEHVRQWLEWAIKEYSLMEIDTSFFQNMDGKELCKMNKEDFLAATTLYNTEVLLSHLSYLRES [R62A] | -0.159 ± 0.097
NMTTNERRVIVPADPTLWTQEHVRQWLEWAIKEYSLMEIDTSFFQNMDGKELCKMNKYDFLRATTLYNTEVLLSHLSYLRES [E58Y] | 0.015 ± 0.22
NMTTNERRVIVPADPTLWTQEHVRQWLEWAIKEYSLMEIDTSFFQNMDGKELCKMNKPDFLRATTLYNTEVLLSHLSYLRES [E58P] | 0.01 ± 0.082
NMTTNERRVIVPADPTLWTQEHVRQWLEWAIKEYSLMEIDTSFFQNMDGKELCKMNKTDFLRATTLYNTEVLLSHLSYLRES [E58T] | -0.053 ± 0.1
NMTTNERRVIVPADPTLWTQEHVRQWLEWAIKEYSLMEIDTSFFQNMDGKELCKMNKRDFLRATTLYNTEVLLSHLSYLRES [E58R] | -0.032 ± 0.064
NMTTNERRVIVPADPTLWTQEHVRQWLEWAIKEYSLMEIDTSFFQNMDGKELCKMNKMDFLRATTLYNTEVLLSHLSYLRES [E58M] | -0.19 ± 0.072
